This experiment has as its target rat cardiac ryanodine receptor (RyR2) (rat (endogenous in rat ventricular myocytes)) (UniProt B0LPN4).
UniProt B0LPN4, sequence (B0LPN4 whole entry): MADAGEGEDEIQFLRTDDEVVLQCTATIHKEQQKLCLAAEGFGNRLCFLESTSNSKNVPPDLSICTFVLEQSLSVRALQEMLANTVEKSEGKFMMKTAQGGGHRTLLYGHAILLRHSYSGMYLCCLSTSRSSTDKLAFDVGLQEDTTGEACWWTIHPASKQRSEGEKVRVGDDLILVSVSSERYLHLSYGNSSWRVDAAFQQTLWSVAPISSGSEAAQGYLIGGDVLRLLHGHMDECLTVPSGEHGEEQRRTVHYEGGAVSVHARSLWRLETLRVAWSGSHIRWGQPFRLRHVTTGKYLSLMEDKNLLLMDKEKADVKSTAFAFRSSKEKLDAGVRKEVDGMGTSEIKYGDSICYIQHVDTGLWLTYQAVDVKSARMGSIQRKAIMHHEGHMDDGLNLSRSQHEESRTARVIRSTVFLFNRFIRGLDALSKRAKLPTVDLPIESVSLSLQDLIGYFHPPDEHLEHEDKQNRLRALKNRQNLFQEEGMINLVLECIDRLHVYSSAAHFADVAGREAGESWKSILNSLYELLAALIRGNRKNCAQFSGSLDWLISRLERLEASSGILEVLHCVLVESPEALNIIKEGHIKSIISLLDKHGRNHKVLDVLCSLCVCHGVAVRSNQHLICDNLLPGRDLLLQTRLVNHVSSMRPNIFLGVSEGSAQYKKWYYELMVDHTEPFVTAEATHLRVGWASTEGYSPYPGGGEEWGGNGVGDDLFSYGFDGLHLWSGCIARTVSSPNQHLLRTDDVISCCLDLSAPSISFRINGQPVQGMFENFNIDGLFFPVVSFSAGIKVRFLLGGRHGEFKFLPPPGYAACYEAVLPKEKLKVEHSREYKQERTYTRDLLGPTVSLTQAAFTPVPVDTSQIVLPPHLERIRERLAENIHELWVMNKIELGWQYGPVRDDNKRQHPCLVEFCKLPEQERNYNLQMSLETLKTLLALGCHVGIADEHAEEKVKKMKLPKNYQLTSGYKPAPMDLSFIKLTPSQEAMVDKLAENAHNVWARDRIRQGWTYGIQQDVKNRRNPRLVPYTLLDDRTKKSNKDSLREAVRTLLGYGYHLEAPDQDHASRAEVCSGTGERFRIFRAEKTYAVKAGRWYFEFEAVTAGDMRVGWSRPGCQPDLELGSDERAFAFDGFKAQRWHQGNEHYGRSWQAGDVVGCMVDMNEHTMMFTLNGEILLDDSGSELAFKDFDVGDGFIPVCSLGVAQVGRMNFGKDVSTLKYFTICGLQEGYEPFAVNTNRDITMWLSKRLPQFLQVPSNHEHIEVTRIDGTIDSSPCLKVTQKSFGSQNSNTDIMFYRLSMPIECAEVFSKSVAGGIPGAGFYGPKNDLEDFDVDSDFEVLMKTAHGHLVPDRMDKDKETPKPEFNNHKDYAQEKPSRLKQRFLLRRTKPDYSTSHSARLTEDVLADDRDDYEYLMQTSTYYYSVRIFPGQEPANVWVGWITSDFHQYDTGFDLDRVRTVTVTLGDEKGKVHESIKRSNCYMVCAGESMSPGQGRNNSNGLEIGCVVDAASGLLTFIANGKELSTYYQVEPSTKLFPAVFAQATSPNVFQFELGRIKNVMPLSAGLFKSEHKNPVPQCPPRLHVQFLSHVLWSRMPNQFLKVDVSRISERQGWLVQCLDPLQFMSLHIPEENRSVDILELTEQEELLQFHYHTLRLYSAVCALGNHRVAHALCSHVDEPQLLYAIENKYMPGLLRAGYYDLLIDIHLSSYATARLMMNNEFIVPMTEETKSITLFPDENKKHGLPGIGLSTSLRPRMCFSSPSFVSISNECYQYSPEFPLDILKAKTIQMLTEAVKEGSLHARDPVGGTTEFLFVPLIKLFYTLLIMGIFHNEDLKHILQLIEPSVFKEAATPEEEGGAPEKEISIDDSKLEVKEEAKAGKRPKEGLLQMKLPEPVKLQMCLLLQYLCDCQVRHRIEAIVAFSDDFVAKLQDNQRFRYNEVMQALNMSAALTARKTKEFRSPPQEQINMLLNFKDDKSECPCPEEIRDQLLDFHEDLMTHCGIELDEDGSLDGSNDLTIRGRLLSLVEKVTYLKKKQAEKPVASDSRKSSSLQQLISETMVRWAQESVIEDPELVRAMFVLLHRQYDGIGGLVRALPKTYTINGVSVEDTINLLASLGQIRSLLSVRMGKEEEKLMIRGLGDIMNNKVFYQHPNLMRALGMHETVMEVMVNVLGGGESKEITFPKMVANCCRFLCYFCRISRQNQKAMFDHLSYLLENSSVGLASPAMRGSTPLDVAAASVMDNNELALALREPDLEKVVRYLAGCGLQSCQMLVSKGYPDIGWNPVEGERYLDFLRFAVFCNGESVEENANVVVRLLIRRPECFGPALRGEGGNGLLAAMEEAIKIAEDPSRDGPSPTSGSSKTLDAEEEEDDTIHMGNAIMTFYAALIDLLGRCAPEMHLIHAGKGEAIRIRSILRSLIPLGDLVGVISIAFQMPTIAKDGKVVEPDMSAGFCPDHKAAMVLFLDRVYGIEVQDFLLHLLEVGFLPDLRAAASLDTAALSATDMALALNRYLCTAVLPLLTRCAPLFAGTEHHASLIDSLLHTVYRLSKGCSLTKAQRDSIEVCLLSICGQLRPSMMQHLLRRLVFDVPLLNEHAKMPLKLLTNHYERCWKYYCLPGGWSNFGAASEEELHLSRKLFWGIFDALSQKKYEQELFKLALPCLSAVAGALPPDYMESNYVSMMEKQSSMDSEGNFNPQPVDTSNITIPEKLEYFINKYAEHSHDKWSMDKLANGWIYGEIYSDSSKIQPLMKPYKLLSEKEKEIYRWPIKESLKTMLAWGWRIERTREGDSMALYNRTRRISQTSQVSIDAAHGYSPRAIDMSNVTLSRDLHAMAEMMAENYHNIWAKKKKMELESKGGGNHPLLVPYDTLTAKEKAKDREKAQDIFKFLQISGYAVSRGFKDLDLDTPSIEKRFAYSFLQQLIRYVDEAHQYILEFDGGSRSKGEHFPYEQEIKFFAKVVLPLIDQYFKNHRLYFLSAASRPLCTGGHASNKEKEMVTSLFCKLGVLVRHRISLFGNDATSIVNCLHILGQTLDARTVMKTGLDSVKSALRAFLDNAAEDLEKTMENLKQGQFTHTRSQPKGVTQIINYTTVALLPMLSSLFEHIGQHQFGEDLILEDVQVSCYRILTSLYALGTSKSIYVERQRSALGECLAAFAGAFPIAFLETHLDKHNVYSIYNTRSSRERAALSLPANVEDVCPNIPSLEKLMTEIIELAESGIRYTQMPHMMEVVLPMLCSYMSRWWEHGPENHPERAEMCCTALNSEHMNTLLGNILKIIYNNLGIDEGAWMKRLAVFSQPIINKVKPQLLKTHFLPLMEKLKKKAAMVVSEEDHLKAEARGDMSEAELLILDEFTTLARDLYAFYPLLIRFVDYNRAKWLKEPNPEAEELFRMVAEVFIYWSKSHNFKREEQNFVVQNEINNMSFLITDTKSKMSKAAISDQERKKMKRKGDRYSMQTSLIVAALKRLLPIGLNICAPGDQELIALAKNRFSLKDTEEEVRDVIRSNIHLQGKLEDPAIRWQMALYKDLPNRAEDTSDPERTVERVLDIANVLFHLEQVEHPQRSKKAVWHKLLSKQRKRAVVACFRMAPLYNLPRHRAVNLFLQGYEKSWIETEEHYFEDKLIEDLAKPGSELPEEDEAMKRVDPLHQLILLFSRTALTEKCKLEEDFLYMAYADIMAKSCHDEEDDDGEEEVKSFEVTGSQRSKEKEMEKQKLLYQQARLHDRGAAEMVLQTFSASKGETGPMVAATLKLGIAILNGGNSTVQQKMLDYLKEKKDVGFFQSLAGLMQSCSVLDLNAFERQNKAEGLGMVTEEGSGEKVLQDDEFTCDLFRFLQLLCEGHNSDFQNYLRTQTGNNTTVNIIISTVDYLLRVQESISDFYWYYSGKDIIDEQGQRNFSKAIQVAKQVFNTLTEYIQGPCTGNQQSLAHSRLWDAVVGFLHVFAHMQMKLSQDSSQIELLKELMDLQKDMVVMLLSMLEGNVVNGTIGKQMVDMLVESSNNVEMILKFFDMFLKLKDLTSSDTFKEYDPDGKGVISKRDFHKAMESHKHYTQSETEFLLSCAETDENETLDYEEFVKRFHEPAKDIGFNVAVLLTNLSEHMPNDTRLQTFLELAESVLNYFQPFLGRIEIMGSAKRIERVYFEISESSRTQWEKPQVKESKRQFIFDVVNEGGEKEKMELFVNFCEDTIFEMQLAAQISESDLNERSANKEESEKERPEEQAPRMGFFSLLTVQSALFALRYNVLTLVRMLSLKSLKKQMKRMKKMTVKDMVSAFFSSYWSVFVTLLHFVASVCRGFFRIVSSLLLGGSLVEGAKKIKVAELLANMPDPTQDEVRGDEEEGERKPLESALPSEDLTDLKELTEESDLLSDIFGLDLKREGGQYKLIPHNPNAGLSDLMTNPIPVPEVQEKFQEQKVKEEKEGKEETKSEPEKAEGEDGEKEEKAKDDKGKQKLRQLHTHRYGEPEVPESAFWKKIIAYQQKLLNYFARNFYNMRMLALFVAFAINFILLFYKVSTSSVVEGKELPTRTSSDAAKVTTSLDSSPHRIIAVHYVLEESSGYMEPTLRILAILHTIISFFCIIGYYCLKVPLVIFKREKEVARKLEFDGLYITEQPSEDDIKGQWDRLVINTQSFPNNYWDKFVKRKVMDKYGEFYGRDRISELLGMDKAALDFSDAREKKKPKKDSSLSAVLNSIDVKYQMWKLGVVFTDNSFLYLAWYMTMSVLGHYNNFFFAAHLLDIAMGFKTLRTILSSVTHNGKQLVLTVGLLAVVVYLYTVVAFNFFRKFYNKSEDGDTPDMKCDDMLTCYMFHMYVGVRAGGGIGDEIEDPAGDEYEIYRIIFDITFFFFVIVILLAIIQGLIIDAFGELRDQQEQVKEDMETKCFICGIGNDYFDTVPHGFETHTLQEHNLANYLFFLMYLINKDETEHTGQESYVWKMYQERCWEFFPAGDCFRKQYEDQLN

FKBP12, sequence (P62942 whole entry): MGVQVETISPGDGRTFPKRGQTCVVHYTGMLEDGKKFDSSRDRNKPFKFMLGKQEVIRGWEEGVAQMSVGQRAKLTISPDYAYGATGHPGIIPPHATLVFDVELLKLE

Turning to “FKBP12 (from UniProt P62942 1-108) (natural protein)”, the percent increase in the frequency of spontaneous Ca^2+ waves in permeabilised rat cardiac myocytes with 3 µM FKBP12 is 50%; the percent increase in the frequency of spontaneous Ca^2+ waves in permeabilised rat cardiac myocytes with 3 µM FKBP12, after pre-incubation with and in the continued presence of 200 nM FKBP12.6 is 16.2%.

Values taken from article PMC3283708.
